Experimental findings from the DeepSol protein solubility set are described below.

The nature of the series: soluble on expression in E. coli; label from the status in PepcDB or PDB records.
As for “RVAYIQIIEPDNLIKQGDLRSIRVKSIPSARGIISDRNGEPLAVSVPVEAVWADPATIFKENALSQKQNWYALADVLGVDRQGLIDKIKRNEKRRFIYLQRQVSPAMANYIRELKLPGIGLKSESRRYYPAGEVSAHLVGVTGIDGHGLEGVERSYDEWLTGEEGKKTIRKDRYGRVVENIAWQDKQEGKSLQLTIDQRLQAIAYRAIKQAVADHRATSGSVVMLDVKTGAVLAMVNAPSYNPNNRTDWQSYKMRNRVITDSMEPGSTIKPFVILAALENGVADKDTIVDTGNGVLRLGGSRVRDVSWVGKASLSMILKKSSNIGVTKLAMQMPVEALLGLYSSVGFGELSGLNLVGEVTGIFPTRTRWSPIERATIA”, the “soluble on expression in E. coli” value is listed as “not soluble”.
As to “MKANTIIAGLLSSTLLATAAYAQTPAPADSTRTMSKSTSASESQHMGQWRASKLIGVNVYNQGNEKLGDISEMLIDSEGRIQGVVIGVGGFLGVGQRDVAVTFDKLQWVNTPVSSNTAMNSQTTPAGSGTSTASPAGTTTGAATSTTAANNADRWYPDHAVLNATKDQLKSMPEFKYSK”, the “soluble on expression in E. coli” value is “not soluble”.
To “MVIILAMTNREKFKVLADQIKISNQLEQDILEQGELTRIDVSNKNRTWTFQISLPHFLSHEDYLLFTHAIEEEFKEIATVAIDFSIKDTNNQDEFALKYFGHCIDQTRLSPKVKGQLKQKKLIMSGNVLKVLVSNDIERNHFDKACNGSLVKA” belongs “not soluble”.
Take “MGSDKIHHHHHHMLPPLDSDLMRGFLAVVETGSLTRAGHRLGRTQSAISMQIRKLEDSLGQSVFVREPRGVRLTERGKQLLPYAQRVVGLLDEAAIALREKPLSGPVRVGVPDEYIQGVLPAVLSAFSQRHPETQVTLRCDFSAPQLEALNSDKIDLAVIYEGYSTDEVEVLAVDPTVWVTSISHAQHLHRPLPISIYFSSDWCRDFALHSLEQIGIPYFAAFECDTSGGMRSAVSNGIAVAPLARSSIPPGCRELTAEDGFMGVDNARVVLRRNPAGSSTAIEAMVATLREAFWPLTKNGGL”: the “soluble on expression in E. coli” value is reported as “not soluble”.
Consider “MSGIPSQGVASGMREAARALLAVLEPEQVRELRAGPDRLDTPELREWTYLPGPRPGLSTEGLDGRQREVVDALLTTAHSAAGAELVRGAIEVERHPRARAGHPGPDRYWVRLLGDPGGDEPWGWRLNGHHLAVHVLVTAAGVRVTPHFVGAEPARTGNGPRPGLRPLGPEEDLARELITSLGGTARASALFAATPPDDILTRADPFADPGLLPEGLRYDRLAPGQQRLLERLVGRYLDRAPEAYARECWSDAVRRGLGSLSFAWAGGLAPGDRHYYCVRAPDFLIEYDNTQDDGNHAHSVWRHVRHDWGTDLLRGHYTEQHFLEHHHHHH”, for which the “soluble on expression in E. coli” value is “not soluble”.
“GPGSMMREAGRQRRRNADSDESSSEDEQQQTTTTVQETTAAAPPARVRAKAPAAAVVSAPSMTLHADPTATQVTAPSAVSAETADSEGGSNEDAPSSAAAAAPPNEFSEEMEAIDYDALTYAALLDIMNRASRPVIEELMAQREQQVESTMQQQQNQRVERFLDVATTSSATAAEANGSSAEEEAAEGYRYNTMLTRLFEALNRNNEGSAMTERNQLPVPILERMGKKKTVIANFGRICDAFHRPMEDVKDFIEKELSIRGNLDSNNALILKFEIRKQTDFDRVLIKYLDEYVKCNSCHRIDTTLTKDGRRLELRCNVCTATRTVTAAGTATFSAQIEKRSRQRAAMIL”: the “soluble on expression in E. coli” value was “soluble”.
Turning to “MRRILSVLLENESGALSRVVGLFSQRAFNIESLTVAPTDDPTLSRMTIEAVGDAQALEQIEKQLHKLVDVFKVVNLSEQEHIEREIVLAKVRAVGSSRDEIKRLADIFRGQIVDVTPKSYTIQLSGTNDKVDAFISALKEETTLLEIVRSGLISVSRGEKNILLEHHHHHH”, the “soluble on expression in E. coli” value is “not soluble”.
To “MKVVRVCGGFGNQLFQYAFYLAVKHKFNETTKLDIHDMASYELHNGYELERIFNLNENYCSAEEKLAVQSTKNIFTKLLKEIKKYTPFIPRTYIKEKKHLHFSYQEVDLGTKDTSIYYRGSWQNPQYFNSIASEIREKLTFPEFTEPKSLALHQEISEHETVAVHIRRGDYLKHKALGGICDLPYYQNAIKEIEGLVEKPLFVIFSDDITWCRANINVEKVRFVDWNSGEQSFQDMHLMSLCTHNIIANSSFSWWGAWLNANPNKIVISPNKWIHYTDSMGIVPSEWIKVETSILEHHHHHH” belongs “not soluble”.
In the case of “MSELSQLSPQPLWDIFAKICSIPHPSYHEEQLAEYIVGWAKEKGFHVERDQVGNILIRQPATAGMENRKPVVLQAHLDMVPQKNNDTVHDFTKDPIQPYIDGEWVKARGTTLGADNGIGMASALAVLADENVVHGPLEVLLTMTEEAGMDGAFGLQSNWLQADILINTDSEEEGEIYMGCAGGIDFTSNLHLDREAVPAGFETFKLTLKGLKGGHSGGEIHVGLGNANKLLVRFLAGHAEELDLRLIDFNGGTLRNAIPREAFATIAVAADKVDALKSLVNTYQEILKNELAEKEKNLALLLDSVANDKAALIAKSRDTFIRLLNATPNGVIRNSDVAKGVVETSLNVGVVTMTDNNVEIHCLIRSLIDSGKDYVVSMLDSLGKLAGAKTEAKGAYPGWQPDANSPVMHLVRETYQRLFNKTPNIQIIHAGLECGLFKKPYPEMDMVSIGPTITGPHSPDEQVHIESVGHYWTLLTELLKEIPAK”, the “soluble on expression in E. coli” value is listed as “not soluble”.
Turning to “MQELINEYRGALQEVNEVKANLQTKIDAKKRPPQAAGQKRTIQEVPEKAIMSKLNSIIRSLEYSIEWMELGHEPAPRRAIHRRSGLQREVCVTDIETMRQWFVYEHGIAYDFEDNEPKISEWDKIRMEDAMSTMSTQEKKVFLLKHEKNLSYSQISDEMEISVRSVRSYLHRGEEKIQNQIDGSLFCMAI”, the “soluble on expression in E. coli” value was “not soluble”.
To “MADKSAEKERLFNEWFTASYDRLRGTLRRYGMLDEDNFHDTYLFVRRQVLVPGKDITDYDAYFIGCYKKAALVKIKRENRYAHPEDDFFLRCGEEAKFLSEDDLNGCERLVRDILRFVRQKFSYEEYRMFMLRFYEAQFSFKALAECMGISASAISQKVCRIVDAVRTHSGFAWRSQMLAVESFMY” belongs “not soluble”; to “MVPSTFSRLKAARCLPVVLAALIFVGCGTHTPDQSTAYMQGTAQADSAFYLQQMQQSSDDTRINWQLLAIRALVKEGKTGQAVELFNQLPQELNDSQRREKTLLAVEIKLAQKDFAGAQNLLAKITPADLEQNQQARYWQAKIDASQGRPSIDLLRALIAQEPLLGAKEKQQNIDATWQALSSMTQEQANTLVINADENILQGWLDLQRVWFDNRNDPDMMKAGIADWQKRYPNNPGAKMLPTQLVNVKAFKPASTNKIALLLPLNGQAAVFGRTIQQGFEAAKNIGTQPVAAQVAAAPAADVAEQPQPQTADGVASPAQASVSDLTGDQPAAQPVPVSAPATSTAAVSAPANPSAELKIYDTSSQPLSQILSQVQQDGASIVVGPLLKNNVEELLKSNTPLNVLALNQPENIENRVNICYFALSPEDEARDAARHIRDQGKQAPLVLIPRSSLGDRVANAFAQEWQKLGGGTVLQQKFGSTSELRAGVNGGSGIALTGTPITPRATTDSGMTTNNPTLQTTPTDDQFTNNGGRVDAVYIVATPGEIAFIKPMIAMRNGSQSGATLYASSRSAQGTAGPDFRLEMEGLQYSEIPMLAGGNLPLMQQALSAVNNDYSLARMYAMGVDAWSLANHFSQMRQVQGFEINGNTGSLTANPDCVINRKLSWLQYQQGQVVPAS”, “soluble”.
As to “MSLRQIRTVIQYQTVRYDILPLSPVSRNRLAQVKRKILVLDLDETLIHSHHDGVLRPTVRPGTPPDFILKVVIDKHPVRFFVHKRPHVDFFLEVVSQWYELVVFTASMEIYGSAVADKLDNSRSILKRRYYRQHCTLELGSYIKDLSVVHSDLSSIVILDNSPGAYRSHPDNAIPIKSWFSDPSDTALLNLLPMLDALRFTADVRSVLSRNLHQHRLWEGHHHHHH”, the “soluble on expression in E. coli” value is reported as “not soluble”.
Take “MGSDKIHHHHHHMSTNALRGKAAIVGFGDSYCKRGEVKSAMRLAQEATRRALDDAGLNKDEIDGLLTGRAPMSDQRHQWNNIFAAYNKITPRYASEITIHAAGMNSMLKHAALAVTSGVARFVLCVGADAAASQPTVRAQIGGMDADPEFEQPYEPIIPTIYAQMACRLMHEYGMSEEDFSAVAVQCQEWAVHHPYAAKGHKGLVTIDDVMRSPMIASPLRLWHCAPWGPPGTAGAVIVTDADTARSMSDRPIYLLGAGECQTHEYLSDRMALRSSILPLGDLPNITSTGCRVAGDAAFSMAGLRPDDINVVQTASQFAHVELQVLAELGFTDLRAAGEFVRSGATGPQGALPTNTNGGWLSFGQPGVSCVMDSISETIRQLRGEALGLQVQDAHIGLVHGNGGMQACHSVAILGREP”: the “soluble on expression in E. coli” value was “not soluble”.
